Consider five molecules from patent publication US20250152729A1 (CANCER RESEARCH TECHNOLOGY, published 2025).

Test [1] deals with T1, human SEMA4A expressed on cells (UniProt ID Q9H3S1, isoform 1) (human, UniProt Q9H3S1 33-761).
T1 construct: Cell-surface SEMA4A: endogenous on MM.1S, NCI-H929 and Karpas-25 cells, or expi293 cells transfected with Origene SC323738; also called human Semaphorin4A; SEMA4A endogenously expressed on MM.1S cells
T1 sequence: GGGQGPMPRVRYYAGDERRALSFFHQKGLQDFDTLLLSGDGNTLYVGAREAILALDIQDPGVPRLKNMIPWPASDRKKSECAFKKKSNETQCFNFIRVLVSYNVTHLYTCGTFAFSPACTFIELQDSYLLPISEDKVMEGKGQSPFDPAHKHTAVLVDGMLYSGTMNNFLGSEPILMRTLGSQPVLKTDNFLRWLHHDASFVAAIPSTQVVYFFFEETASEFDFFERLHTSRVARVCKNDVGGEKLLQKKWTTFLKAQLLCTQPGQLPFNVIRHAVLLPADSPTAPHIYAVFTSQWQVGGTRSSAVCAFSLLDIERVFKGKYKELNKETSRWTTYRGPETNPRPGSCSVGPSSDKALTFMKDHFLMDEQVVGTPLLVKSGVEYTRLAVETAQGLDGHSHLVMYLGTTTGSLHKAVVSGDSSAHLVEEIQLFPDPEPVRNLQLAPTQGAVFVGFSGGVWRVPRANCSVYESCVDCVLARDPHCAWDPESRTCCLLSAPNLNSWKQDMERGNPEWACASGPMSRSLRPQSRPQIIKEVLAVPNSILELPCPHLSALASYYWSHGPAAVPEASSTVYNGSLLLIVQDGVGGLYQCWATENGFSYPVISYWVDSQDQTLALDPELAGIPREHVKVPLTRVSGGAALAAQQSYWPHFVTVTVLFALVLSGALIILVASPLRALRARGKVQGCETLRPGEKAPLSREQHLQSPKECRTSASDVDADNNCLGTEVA
The test can be described thus: Mirrorball epitope competition on MM.1S cells; competitor: fixed 5E3 mouse IgG1. From the text:
The 5E3 epitope competition assay assessed the ability of the un-purified IgGs expressed in a human IgG1 backbone to compete for binding to the mouse 5E3 epitope on human SEMA4A endogenously expressed by MM.1S cells, a human multiple myeloma cell line. The assay utilised a secondary-Alexa Fluor 647 conjugate, 5E3 expressed in a mouse IgG1 (A) backbone (BioLegend®, San Diego, CA, 148402) and a Mirrorball fluorescence cytometer (SPT Labtech, UK). Binding of 5E3 mouse IgG1 to MM.1S cells was measured via an anti-mouse secondary labelled with Alexa Fluor 647 (Invitrogen, A21235) in the presence of a single concentration of each un-purified human IgG1. […] 10 μl undiluted un-purified IgG, contained in Expi293 expression medium (Gibco, UK, A1435101), were added to the assay plate (Greiner Bio-one, UK, 781906), followed by 10 ul of 1.2 nM 5E3 mouse IgG1 and 20 μl MM.1S cell suspension containing 1,500 cells that was spiked with 4 nM anti-mouse Alexa Fluor 647. The assay plate was incubated for 4 hours at room temperature, in the dark prior to reading on a Mirrorball fluorescence cytometer (SPT Labtech, UK) using a 640 nm laser for excitation and measuring emission in the FL-4 channel (650-690 nm). Data was analysed as Count x median mean intensity (x FLU). All dilutions were performed in Hanks' balanced salt solution (Sigma, UK; cat: H8264) containing 0.1% (w/V) BSA (Sigma, UK; cat: A9576). Maximum binding signal was determined by analysing the binding of 5E3 mouse IgG1 to MM.1S cells in the absence of competitor un-purified human IgG1. Background binding signal was determined by analysing the fluorescence generated in the absence of 5E3 mouse IgG1. Data were analysed and graphed using GraphPad Prism software (GraphPad Software, Inc, La Jolla, CA).
Hits from the primary screening were re-formatted into the human Alya IgG1 vector and re-expressed and purified as described in section 4.1. 5E3 epitope competition assay methods are described in section 3.2 and were used to test purified human Alya IgG1s. The purified human Alya IgG1s were diluted to a 4× stock and then serially diluted using 4-fold dilutions to generate a 10 point concentration response curve.

For test [2], the target named is T1, human SEMA4A expressed on cells …. The test can be described thus: cell-based or functional assay.
The target in test [3] is T2, mouse SEMA4A expressed on expi293 cells (UniProt ID Q62178) (mouse, UniProt Q62178 33-760).
T2 construct: Transient transfection in expi293 cells
T2 sequence: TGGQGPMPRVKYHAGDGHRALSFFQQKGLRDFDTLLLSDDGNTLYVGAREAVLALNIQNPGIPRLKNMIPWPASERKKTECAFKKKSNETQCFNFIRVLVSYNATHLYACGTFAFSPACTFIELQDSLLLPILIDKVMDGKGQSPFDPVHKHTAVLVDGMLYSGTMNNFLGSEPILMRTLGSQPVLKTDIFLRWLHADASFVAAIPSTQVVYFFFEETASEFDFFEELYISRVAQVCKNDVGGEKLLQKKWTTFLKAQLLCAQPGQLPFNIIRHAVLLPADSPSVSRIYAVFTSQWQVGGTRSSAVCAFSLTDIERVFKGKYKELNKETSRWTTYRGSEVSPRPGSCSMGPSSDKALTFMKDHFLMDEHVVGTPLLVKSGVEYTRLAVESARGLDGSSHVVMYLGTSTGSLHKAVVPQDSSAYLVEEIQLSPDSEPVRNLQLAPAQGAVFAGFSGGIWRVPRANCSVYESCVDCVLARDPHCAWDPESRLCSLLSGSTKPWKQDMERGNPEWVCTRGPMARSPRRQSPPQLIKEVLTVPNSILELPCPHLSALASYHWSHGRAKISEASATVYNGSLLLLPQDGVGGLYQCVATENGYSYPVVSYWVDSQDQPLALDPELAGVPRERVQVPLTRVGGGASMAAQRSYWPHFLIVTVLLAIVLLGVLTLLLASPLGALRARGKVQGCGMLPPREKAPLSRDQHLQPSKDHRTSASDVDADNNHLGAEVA
The test can be described thus: Mirrorball direct binding, dilution series on expi293 cells transiently transfected with mouse SEMA4A, anti-human Alexa Fluor 647.

B1: 5Hg5-5Lg2 human Alya IgG1 (antibody, V domains shown)
VH: EVQLVQSGAEVKKPGESLRISCKGSGYSFTDYWMHWVRQMPGKGLEWMGAIDTSDSYTSYNQKFKGQVTISADKSISTAYLQWSSLKASDTAMYYCARDYGNFYYYAMDYWGQGTLVTVSS
VL: QAVVTQEPSLTVSPGGTVTLTCRSSTGAVTTSNYANWFQQKPGQAPRTLIYGTNNRAPWTPARFSGSLLGGKAALTLLGAQPEDEAEYYCALWYSNHWVFGGGTKLTVL
notes: Humanised 5E3; human IgG1 Alya constant (239iCys, S442C, EU), lambda light chain; purified, unconjugated; also called 5HE5/5Lg2
As for B1, the IC50 (commonly the concentration that inhibits the measured activity by half) in test [1] was 14.9 nM. Moreover, in test [2], the “IC50 (pM), Fab-ZAP cell kill, NCI-H929” value turned out to be 167 pM and the “Max % Cell Kill, Fab-ZAP, NCI-H929” value was found to be 51%. Further, the binding result in test [3] is given as “binds”.

B2: 5Hg4-5Lg4 human Alya IgG1 (antibody, V domains shown)
VH: QVQLVQSGSELKKPGASVKVSCKASGYTFTDYWMHWVRQAPGQGLEWMGAIDTSDSYTSYNQKFKGRFVFSLDTSVSTAYLQICSLKAEDTAVYYCARDYGNFYYYAMDYWGQGTLVTVSS
VL: QSALTQPPSVSGSPGQSVTISCRSSTGAVTTSNYANWYQQPPGTAPKLMIYGTNNRAPGVPDRFSGSKSGNTASLTISGLQAEDEADYYCALWYSNHWVFGGGTKLTVL
notes: Humanised 5E3; human IgG1 Alya constant (239iCys, S442C, EU), lambda light chain; purified, unconjugated
In the case of B2, the IC50 in test [1] stood at 45.5 nM. For the same molecule, in test [2], the “IC50 (pM), Fab-ZAP cell kill, NCI-H929” value was 119 pM and the “Max % Cell Kill, Fab-ZAP, NCI-H929” value was found to be 33%. Moreover, in test [3], the binding result is “binds”.

B3: 5Hg4-5Lg1 human Alya IgG1 (antibody, V domains shown)
VH: QVQLVQSGSELKKPGASVKVSCKASGYTFTDYWMHWVRQAPGQGLEWMGAIDTSDSYTSYNQKFKGRFVFSLDTSVSTAYLQICSLKAEDTAVYYCARDYGNFYYYAMDYWGQGTLVTVSS
VL: QAVVTQEPSLTVSPGGTVTLTCRSSTGAVTTSNYANWFQQKPGQAPRTLIYGTNNRAPWTPARFSGSLLGGKAALTLSGAQPEDEAEYYCALWYSNHWVFGGGTKLTVL
notes: as for B2
Regarding B3, the IC50 in test [1] amounted to 9.7 nM. In addition, in test [2], the “IC50 (pM), Fab-ZAP cell kill, NCI-H929” value was determined as 122 pM and the “Max % Cell Kill, Fab-ZAP, NCI-H929” value came out at 56%. In test [3], the binding result is listed as “binds”.

B4: 5Hg4-5Lg2 human Alya IgG1 (antibody, V domains shown)
VH: QVQLVQSGSELKKPGASVKVSCKASGYTFTDYWMHWVRQAPGQGLEWMGAIDTSDSYTSYNQKFKGRFVFSLDTSVSTAYLQICSLKAEDTAVYYCARDYGNFYYYAMDYWGQGTLVTVSS
VL: QAVVTQEPSLTVSPGGTVTLTCRSSTGAVTTSNYANWFQQKPGQAPRTLIYGTNNRAPWTPARFSGSLLGGKAALTLLGAQPEDEAEYYCALWYSNHWVFGGGTKLTVL
notes: as for B2
Molecule B4 came in with an IC50 in test [1] of 8.4 nM. Moreover, in test [2], the “IC50 (pM), Fab-ZAP cell kill, NCI-H929” value was found to be 151 pM and the “Max % Cell Kill, Fab-ZAP, NCI-H929” value came out at 58%. Also, in test [3], the binding result was “binds”.

B5: 5Hg2-5Lg6 human Alya IgG1 (antibody, V domains shown)
VH: QVQLVQSGAEVKKPGASVKVSCKASGYTFTDYWMHWVRQAPGQRLEWMGAIDTSDSYTSYNQKFKGRVTITRDTSASTAYMELSSLRSEDTAVYYCARDYGNFYYYAMDYWGQGTLVTVSS
VL: SYELTQPSSVSVSPGQTARITCRSSTGAVTTSNYANWFQQKPGQAPVLVIYGTNNRAPGIPERFSGSSSGTTVTLTISGAQVEDEADYYCALWYSNHWVFGGGTKLTVL
notes: as for B2
In turn, B5 yielded an IC50 in test [1] of 71.8 nM. In test [2], the “IC50 (pM), Fab-ZAP cell kill, NCI-H929” value turned out to be 42 pM and the “Max % Cell Kill, Fab-ZAP, NCI-H929” value was 22%. For the same molecule, the binding result in test [3] is “binds”.
